# In paper PMC11005391, “Tetramerization is essential for the enzymatic function of the Pseudomonas aeruginosa virulence factor UDP-glucose pyrophosphorylase” (mBio, 2024):
# Key:
# Q9I291 = assay: SEC; Superdex 200 10/300 GL, 50 mM Tris-HCl pH 8.0, 300 mM NaCl, 10 mM MgCl2; oligomeric state calculated from elution volumes of proteins of known size; addition of UTP, Glc-1-P or UDP-Glc did not affect the oligomerization of the WT
# [1] = molecular target: the molecule itself; assay: native gel or EMSA; blue native PAGE, uniform 12% polyacrylamide gel with 3.5% stacking gel, 13.5 ug of each protein loaded, Coomassie-stained bands
# [2] = molecular target: the molecule itself; assay: SEC; Superdex 200 10/300 GL, 50 mM Tris-HCl pH 8.0, 300 mM NaCl, 10 mM MgCl2; oligomeric state calculated from elution volumes of proteins of known size; addition of UTP, Glc-1-P or UDP-Glc did not affect the oligomerization of the WT
# [3] = molecular target: the molecule itself; assay: cell-based or functional assay
Protein,N of the monomer peak (minor peak) (Q9I291),stoichiometry N [1],stoichiometry N [2],"In vitro activity (% of WT), EnzChek pyrophosphate assay, forward reaction [3]",N of a minor peak [2]
"PaUGP N32A (enzyme, UDP-glucose pyrophosphorylase of Pseudomonas aeruginosa (galU), residues 1-279, point mutant of Strep-PaUGP; Same construct as m1; source: E. coli BL21(DE3), purified (Strep-Tactin Sepharose); not shown: Strep-tagII, N-terminal, kept) MIKKCLFPAAGYGTRFLPATKAMPKEMLPVVAKPLIQYAVEEALEAGLSEIGIVTGRGKRSLEDHFDISYELEHQIRNTDKEKYLVGIRRLIDECTFAYTRQVEMKGLGHAILTGRPLIGDEPFAVVLADDLCLNLEGDSVLKQMVKLYNQFRCSIVAIQEVPPEETNKYGVIAGEMIRDDIFRVNTMVEKPKPEEAPSNLAIIGRYILTPDIFDLIEQTEPGKGGEIQITDALMKQAQDGCVLAYKFKGKRFDCGSAEGYIEATNFCYENLYKTGKAH",1.1,4,4.4,56.2 % of WT,–
"PaUGP N32D (enzyme, UDP-glucose pyrophosphorylase of Pseudomonas aeruginosa (galU), residues 1-279, point mutant of Strep-PaUGP; Same construct as m1; source: E. coli BL21(DE3), purified (Strep-Tactin Sepharose); not shown: Strep-tagII, N-terminal, kept) MIKKCLFPAAGYGTRFLPATKAMPKEMLPVVDKPLIQYAVEEALEAGLSEIGIVTGRGKRSLEDHFDISYELEHQIRNTDKEKYLVGIRRLIDECTFAYTRQVEMKGLGHAILTGRPLIGDEPFAVVLADDLCLNLEGDSVLKQMVKLYNQFRCSIVAIQEVPPEETNKYGVIAGEMIRDDIFRVNTMVEKPKPEEAPSNLAIIGRYILTPDIFDLIEQTEPGKGGEIQITDALMKQAQDGCVLAYKFKGKRFDCGSAEGYIEATNFCYENLYKTGKAH",1.4,–,4.7,110 % of WT,–
"PaUGP E63D (enzyme, UDP-glucose pyrophosphorylase of Pseudomonas aeruginosa (galU), residues 1-279, point mutant of Strep-PaUGP; Same construct as m1; source: E. coli BL21(DE3), purified (Strep-Tactin Sepharose); not shown: Strep-tagII, N-terminal, kept) MIKKCLFPAAGYGTRFLPATKAMPKEMLPVVNKPLIQYAVEEALEAGLSEIGIVTGRGKRSLDDHFDISYELEHQIRNTDKEKYLVGIRRLIDECTFAYTRQVEMKGLGHAILTGRPLIGDEPFAVVLADDLCLNLEGDSVLKQMVKLYNQFRCSIVAIQEVPPEETNKYGVIAGEMIRDDIFRVNTMVEKPKPEEAPSNLAIIGRYILTPDIFDLIEQTEPGKGGEIQITDALMKQAQDGCVLAYKFKGKRFDCGSAEGYIEATNFCYENLYKTGKAH",1.3,4,3.9,5.68 % of WT,–
"PaUGP Y70A (enzyme, UDP-glucose pyrophosphorylase of Pseudomonas aeruginosa (galU), residues 1-279, point mutant of Strep-PaUGP; Same construct as m1; source: E. coli BL21(DE3), purified (Strep-Tactin Sepharose); not shown: Strep-tagII, N-terminal, kept) MIKKCLFPAAGYGTRFLPATKAMPKEMLPVVNKPLIQYAVEEALEAGLSEIGIVTGRGKRSLEDHFDISAELEHQIRNTDKEKYLVGIRRLIDECTFAYTRQVEMKGLGHAILTGRPLIGDEPFAVVLADDLCLNLEGDSVLKQMVKLYNQFRCSIVAIQEVPPEETNKYGVIAGEMIRDDIFRVNTMVEKPKPEEAPSNLAIIGRYILTPDIFDLIEQTEPGKGGEIQITDALMKQAQDGCVLAYKFKGKRFDCGSAEGYIEATNFCYENLYKTGKAH",1.3,–,2.5,4.08 % of WT,3.8
"PaUGP H74F (enzyme, UDP-glucose pyrophosphorylase of Pseudomonas aeruginosa (galU), residues 1-279, point mutant of Strep-PaUGP; Same construct as m1; source: E. coli BL21(DE3), purified (Strep-Tactin Sepharose); not shown: Strep-tagII, N-terminal, kept) MIKKCLFPAAGYGTRFLPATKAMPKEMLPVVNKPLIQYAVEEALEAGLSEIGIVTGRGKRSLEDHFDISYELEFQIRNTDKEKYLVGIRRLIDECTFAYTRQVEMKGLGHAILTGRPLIGDEPFAVVLADDLCLNLEGDSVLKQMVKLYNQFRCSIVAIQEVPPEETNKYGVIAGEMIRDDIFRVNTMVEKPKPEEAPSNLAIIGRYILTPDIFDLIEQTEPGKGGEIQITDALMKQAQDGCVLAYKFKGKRFDCGSAEGYIEATNFCYENLYKTGKAH",1.1,4,3.5,–,–
"PaUGP Q75A (enzyme, UDP-glucose pyrophosphorylase of Pseudomonas aeruginosa (galU), residues 1-279, point mutant of Strep-PaUGP; Same construct as m1; source: E. coli BL21(DE3), purified (Strep-Tactin Sepharose); not shown: Strep-tagII, N-terminal, kept) MIKKCLFPAAGYGTRFLPATKAMPKEMLPVVNKPLIQYAVEEALEAGLSEIGIVTGRGKRSLEDHFDISYELEHAIRNTDKEKYLVGIRRLIDECTFAYTRQVEMKGLGHAILTGRPLIGDEPFAVVLADDLCLNLEGDSVLKQMVKLYNQFRCSIVAIQEVPPEETNKYGVIAGEMIRDDIFRVNTMVEKPKPEEAPSNLAIIGRYILTPDIFDLIEQTEPGKGGEIQITDALMKQAQDGCVLAYKFKGKRFDCGSAEGYIEATNFCYENLYKTGKAH",1.2,4,4.2,–,–
"PaUGP N266A (enzyme, UDP-glucose pyrophosphorylase of Pseudomonas aeruginosa (galU), residues 1-279, point mutant of Strep-PaUGP; Same construct as m1; source: E. coli BL21(DE3), purified (Strep-Tactin Sepharose); not shown: Strep-tagII, N-terminal, kept) MIKKCLFPAAGYGTRFLPATKAMPKEMLPVVNKPLIQYAVEEALEAGLSEIGIVTGRGKRSLEDHFDISYELEHQIRNTDKEKYLVGIRRLIDECTFAYTRQVEMKGLGHAILTGRPLIGDEPFAVVLADDLCLNLEGDSVLKQMVKLYNQFRCSIVAIQEVPPEETNKYGVIAGEMIRDDIFRVNTMVEKPKPEEAPSNLAIIGRYILTPDIFDLIEQTEPGKGGEIQITDALMKQAQDGCVLAYKFKGKRFDCGSAEGYIEATAFCYENLYKTGKAH",1.2,–,4,64.9 % of WT,–
"PaUGP E63A (enzyme, UDP-glucose pyrophosphorylase of Pseudomonas aeruginosa (galU), residues 1-279, point mutant of Strep-PaUGP; Same construct as m1; source: E. coli BL21(DE3), purified (Strep-Tactin Sepharose); not shown: Strep-tagII, N-terminal, kept) MIKKCLFPAAGYGTRFLPATKAMPKEMLPVVNKPLIQYAVEEALEAGLSEIGIVTGRGKRSLADHFDISYELEHQIRNTDKEKYLVGIRRLIDECTFAYTRQVEMKGLGHAILTGRPLIGDEPFAVVLADDLCLNLEGDSVLKQMVKLYNQFRCSIVAIQEVPPEETNKYGVIAGEMIRDDIFRVNTMVEKPKPEEAPSNLAIIGRYILTPDIFDLIEQTEPGKGGEIQITDALMKQAQDGCVLAYKFKGKRFDCGSAEGYIEATNFCYENLYKTGKAH",–,–,3.6,7.6 % of WT,–
"PaUGP D67A (enzyme, UDP-glucose pyrophosphorylase of Pseudomonas aeruginosa (galU), residues 1-279, point mutant of Strep-PaUGP; Same construct as m1; source: E. coli BL21(DE3), purified (Strep-Tactin Sepharose); not shown: Strep-tagII, N-terminal, kept) MIKKCLFPAAGYGTRFLPATKAMPKEMLPVVNKPLIQYAVEEALEAGLSEIGIVTGRGKRSLEDHFAISYELEHQIRNTDKEKYLVGIRRLIDECTFAYTRQVEMKGLGHAILTGRPLIGDEPFAVVLADDLCLNLEGDSVLKQMVKLYNQFRCSIVAIQEVPPEETNKYGVIAGEMIRDDIFRVNTMVEKPKPEEAPSNLAIIGRYILTPDIFDLIEQTEPGKGGEIQITDALMKQAQDGCVLAYKFKGKRFDCGSAEGYIEATNFCYENLYKTGKAH",–,–,2.3,3.31 % of WT,5.5
"PaUGP D67N (enzyme, UDP-glucose pyrophosphorylase of Pseudomonas aeruginosa (galU), residues 1-279, point mutant of Strep-PaUGP; Same construct as m1; source: E. coli BL21(DE3), purified (Strep-Tactin Sepharose); not shown: Strep-tagII, N-terminal, kept) MIKKCLFPAAGYGTRFLPATKAMPKEMLPVVNKPLIQYAVEEALEAGLSEIGIVTGRGKRSLEDHFNISYELEHQIRNTDKEKYLVGIRRLIDECTFAYTRQVEMKGLGHAILTGRPLIGDEPFAVVLADDLCLNLEGDSVLKQMVKLYNQFRCSIVAIQEVPPEETNKYGVIAGEMIRDDIFRVNTMVEKPKPEEAPSNLAIIGRYILTPDIFDLIEQTEPGKGGEIQITDALMKQAQDGCVLAYKFKGKRFDCGSAEGYIEATNFCYENLYKTGKAH",–,–,2.1,2.54 % of WT,3.8
PaUGP K21A + R101A double mutant (enzyme) MIKKCLFPAAGYGTRFLPATAAMPKEMLPVVNKPLIQYAVEEALEAGLSEIGIVTGRGKRSLEDHFDISYELEHQIRNTDKEKYLVGIRRLIDECTFAYTAQVEMKGLGHAILTGRPLIGDEPFAVVLADDLCLNLEGDSVLKQMVKLYNQFRCSIVAIQEVPPEETNKYGVIAGEMIRDDIFRVNTMVEKPKPEEAPSNLAIIGRYILTPDIFDLIEQTEPGKGGEIQITDALMKQAQDGCVLAYKFKGKRFDCGSAEGYIEATNFCYENLYKTGKAH,–,–,–,0.32 % of WT,–
"PaUGP D67A + R101A double mutant (enzyme, UDP-glucose pyrophosphorylase of Pseudomonas aeruginosa (galU), residues 1-279, double mutant of Strep-PaUGP; Same construct as m1; source: E. coli BL21(DE3), purified (Strep-Tactin Sepharose); not shown: Strep-tagII, N-terminal, kept) MIKKCLFPAAGYGTRFLPATKAMPKEMLPVVNKPLIQYAVEEALEAGLSEIGIVTGRGKRSLEDHFAISYELEHQIRNTDKEKYLVGIRRLIDECTFAYTAQVEMKGLGHAILTGRPLIGDEPFAVVLADDLCLNLEGDSVLKQMVKLYNQFRCSIVAIQEVPPEETNKYGVIAGEMIRDDIFRVNTMVEKPKPEEAPSNLAIIGRYILTPDIFDLIEQTEPGKGGEIQITDALMKQAQDGCVLAYKFKGKRFDCGSAEGYIEATNFCYENLYKTGKAH",–,–,2,1.57 % of WT,–
"PaUGP K59A (enzyme, UDP-glucose pyrophosphorylase of Pseudomonas aeruginosa (galU), residues 1-279, point mutant of Strep-PaUGP; Same construct as m1; source: E. coli BL21(DE3), purified (Strep-Tactin Sepharose); not shown: Strep-tagII, N-terminal, kept) MIKKCLFPAAGYGTRFLPATKAMPKEMLPVVNKPLIQYAVEEALEAGLSEIGIVTGRGARSLEDHFDISYELEHQIRNTDKEKYLVGIRRLIDECTFAYTRQVEMKGLGHAILTGRPLIGDEPFAVVLADDLCLNLEGDSVLKQMVKLYNQFRCSIVAIQEVPPEETNKYGVIAGEMIRDDIFRVNTMVEKPKPEEAPSNLAIIGRYILTPDIFDLIEQTEPGKGGEIQITDALMKQAQDGCVLAYKFKGKRFDCGSAEGYIEATNFCYENLYKTGKAH",–,4,3.6,2.31 % of WT,–
"PaUGP K59R (enzyme, UDP-glucose pyrophosphorylase of Pseudomonas aeruginosa (galU), residues 1-279, point mutant of Strep-PaUGP; Same construct as m1; source: E. coli BL21(DE3), purified (Strep-Tactin Sepharose); not shown: Strep-tagII, N-terminal, kept) MIKKCLFPAAGYGTRFLPATKAMPKEMLPVVNKPLIQYAVEEALEAGLSEIGIVTGRGRRSLEDHFDISYELEHQIRNTDKEKYLVGIRRLIDECTFAYTRQVEMKGLGHAILTGRPLIGDEPFAVVLADDLCLNLEGDSVLKQMVKLYNQFRCSIVAIQEVPPEETNKYGVIAGEMIRDDIFRVNTMVEKPKPEEAPSNLAIIGRYILTPDIFDLIEQTEPGKGGEIQITDALMKQAQDGCVLAYKFKGKRFDCGSAEGYIEATNFCYENLYKTGKAH",–,–,4,1.66 % of WT,–
"PaUGP Q75E (enzyme, UDP-glucose pyrophosphorylase of Pseudomonas aeruginosa (galU), residues 1-279, point mutant of Strep-PaUGP; Same construct as m1; source: E. coli BL21(DE3), purified (Strep-Tactin Sepharose); not shown: Strep-tagII, N-terminal, kept) MIKKCLFPAAGYGTRFLPATKAMPKEMLPVVNKPLIQYAVEEALEAGLSEIGIVTGRGKRSLEDHFDISYELEHEIRNTDKEKYLVGIRRLIDECTFAYTRQVEMKGLGHAILTGRPLIGDEPFAVVLADDLCLNLEGDSVLKQMVKLYNQFRCSIVAIQEVPPEETNKYGVIAGEMIRDDIFRVNTMVEKPKPEEAPSNLAIIGRYILTPDIFDLIEQTEPGKGGEIQITDALMKQAQDGCVLAYKFKGKRFDCGSAEGYIEATNFCYENLYKTGKAH",–,–,3.5,–,–
